# According to the supplement of paper PMC10065799, “High-throughput profiling of sequence recognition by tyrosine kinases and SH2 domains using bacterial peptide display” (eLife, 2023):
# Experiments:
# AncSZ = assay: phosphorylation enrichment, bacterial display (enrichment ratio); higher = better substrate or ligand; peptides without Tyr show the background
# EPHB1 = EPHB1 (UniProt P54762); assay: as above
# EPHB2 = EPHB2 (UniProt P29323); assay: as above
# FGFR1 = FGFR1 (UniProt P11362); assay: as above
# FGFR3 = FGFR3 (UniProt P22607); assay: as above
# Fer (mouse) = assay: as above
# Fes = Fes (UniProt P07332); assay: as above
# Fyn = Fyn (UniProt P06241); assay: as above
# Hck = Hck (UniProt P08631); assay: as above
# Jak2 = Jak2 (UniProt O60674); assay: as above
# MERTK = MERTK (UniProt Q12866); assay: as above
# c-Abl (mouse) = assay: as above
# c-Src = assay: as above
# Grb2 SH2 = Grb2 SH2 (UniProt P62993); assay: SH2 binding enrichment of the phosphorylated peptide, bacterial display (enrichment ratio); higher = better substrate or ligand; peptides without Tyr show the background
# SHP2-C SH2 = assay: as above
# c-Src SH2 = assay: as above
# 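Throughout, for SH2 binding enrichment of the phosphorylated peptide, bacterial display: peptide library displayed on the E. coli surface as eCPX fusions, selected cells deep-sequenced, score is each peptide's frequency after selection divided by its frequency in the input.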
# 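Throughout, for phosphorylation enrichment, bacterial display: 11-residue human phosphosite peptides and single-mutation variants displayed on the E. coli surface, counted by deep sequencing, each peptide's frequency after selection divided by its frequency in the unselected input library; frequency after pTyr selection over input frequency; kinase dosed for 20-30% of maximal phosphorylation in three min.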
# Sequence of EPHB2 (P29323 whole entry, looked up): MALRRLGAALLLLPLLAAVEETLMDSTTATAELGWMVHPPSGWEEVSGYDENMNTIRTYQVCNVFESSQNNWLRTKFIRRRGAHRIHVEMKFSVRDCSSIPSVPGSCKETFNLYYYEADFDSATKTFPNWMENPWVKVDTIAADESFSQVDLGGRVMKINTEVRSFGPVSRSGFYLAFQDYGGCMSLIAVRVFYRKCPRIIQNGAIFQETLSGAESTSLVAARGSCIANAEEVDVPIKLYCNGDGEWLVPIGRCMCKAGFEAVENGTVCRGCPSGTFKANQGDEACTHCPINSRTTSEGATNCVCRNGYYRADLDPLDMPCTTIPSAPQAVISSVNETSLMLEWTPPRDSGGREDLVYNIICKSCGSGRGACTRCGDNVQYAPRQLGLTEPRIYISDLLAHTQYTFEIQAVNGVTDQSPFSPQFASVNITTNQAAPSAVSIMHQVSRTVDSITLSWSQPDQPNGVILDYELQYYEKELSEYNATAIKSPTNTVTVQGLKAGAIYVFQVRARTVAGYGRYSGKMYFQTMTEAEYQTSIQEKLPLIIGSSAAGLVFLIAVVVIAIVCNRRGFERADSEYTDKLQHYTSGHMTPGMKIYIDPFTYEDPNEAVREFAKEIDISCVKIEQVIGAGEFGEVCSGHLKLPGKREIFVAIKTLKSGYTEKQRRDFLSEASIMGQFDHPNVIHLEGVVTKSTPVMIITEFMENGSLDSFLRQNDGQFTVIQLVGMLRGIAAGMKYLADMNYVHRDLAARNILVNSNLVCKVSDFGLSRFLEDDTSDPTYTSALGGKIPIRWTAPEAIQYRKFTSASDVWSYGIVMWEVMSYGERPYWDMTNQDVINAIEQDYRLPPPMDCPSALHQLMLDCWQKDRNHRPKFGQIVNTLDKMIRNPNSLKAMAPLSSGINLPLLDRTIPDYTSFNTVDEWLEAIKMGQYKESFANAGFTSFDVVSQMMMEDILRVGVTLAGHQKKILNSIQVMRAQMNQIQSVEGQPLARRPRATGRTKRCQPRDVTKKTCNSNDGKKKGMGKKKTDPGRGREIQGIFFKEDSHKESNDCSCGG
# Sequence of MERTK (Q12866 whole entry, looked up): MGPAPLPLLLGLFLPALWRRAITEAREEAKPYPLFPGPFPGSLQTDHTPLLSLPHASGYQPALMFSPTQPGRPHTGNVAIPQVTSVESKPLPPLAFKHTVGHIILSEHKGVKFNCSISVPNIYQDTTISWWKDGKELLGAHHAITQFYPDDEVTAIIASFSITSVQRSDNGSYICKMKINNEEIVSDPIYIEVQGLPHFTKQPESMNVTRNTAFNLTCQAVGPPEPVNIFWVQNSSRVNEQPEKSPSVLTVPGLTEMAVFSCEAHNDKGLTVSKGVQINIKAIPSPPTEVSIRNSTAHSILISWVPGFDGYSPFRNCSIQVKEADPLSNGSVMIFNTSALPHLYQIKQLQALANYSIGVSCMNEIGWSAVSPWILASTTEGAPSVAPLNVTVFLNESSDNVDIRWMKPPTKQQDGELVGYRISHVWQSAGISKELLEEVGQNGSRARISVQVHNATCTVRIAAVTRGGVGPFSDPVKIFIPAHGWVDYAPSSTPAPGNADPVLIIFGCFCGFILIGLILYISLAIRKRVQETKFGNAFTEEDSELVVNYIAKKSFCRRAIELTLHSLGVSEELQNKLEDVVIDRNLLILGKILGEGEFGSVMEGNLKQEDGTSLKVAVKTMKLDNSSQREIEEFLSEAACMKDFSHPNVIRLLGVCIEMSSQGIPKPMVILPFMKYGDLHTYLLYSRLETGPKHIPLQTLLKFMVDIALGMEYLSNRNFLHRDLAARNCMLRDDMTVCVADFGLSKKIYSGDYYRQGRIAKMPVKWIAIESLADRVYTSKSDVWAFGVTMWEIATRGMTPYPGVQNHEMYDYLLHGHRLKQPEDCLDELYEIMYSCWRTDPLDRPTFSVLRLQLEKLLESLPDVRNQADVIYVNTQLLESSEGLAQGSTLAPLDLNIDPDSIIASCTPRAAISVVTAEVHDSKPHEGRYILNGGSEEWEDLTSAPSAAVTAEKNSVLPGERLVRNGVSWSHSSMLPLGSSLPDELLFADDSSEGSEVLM
# Sequence of Jak2 (O60674 whole entry, looked up): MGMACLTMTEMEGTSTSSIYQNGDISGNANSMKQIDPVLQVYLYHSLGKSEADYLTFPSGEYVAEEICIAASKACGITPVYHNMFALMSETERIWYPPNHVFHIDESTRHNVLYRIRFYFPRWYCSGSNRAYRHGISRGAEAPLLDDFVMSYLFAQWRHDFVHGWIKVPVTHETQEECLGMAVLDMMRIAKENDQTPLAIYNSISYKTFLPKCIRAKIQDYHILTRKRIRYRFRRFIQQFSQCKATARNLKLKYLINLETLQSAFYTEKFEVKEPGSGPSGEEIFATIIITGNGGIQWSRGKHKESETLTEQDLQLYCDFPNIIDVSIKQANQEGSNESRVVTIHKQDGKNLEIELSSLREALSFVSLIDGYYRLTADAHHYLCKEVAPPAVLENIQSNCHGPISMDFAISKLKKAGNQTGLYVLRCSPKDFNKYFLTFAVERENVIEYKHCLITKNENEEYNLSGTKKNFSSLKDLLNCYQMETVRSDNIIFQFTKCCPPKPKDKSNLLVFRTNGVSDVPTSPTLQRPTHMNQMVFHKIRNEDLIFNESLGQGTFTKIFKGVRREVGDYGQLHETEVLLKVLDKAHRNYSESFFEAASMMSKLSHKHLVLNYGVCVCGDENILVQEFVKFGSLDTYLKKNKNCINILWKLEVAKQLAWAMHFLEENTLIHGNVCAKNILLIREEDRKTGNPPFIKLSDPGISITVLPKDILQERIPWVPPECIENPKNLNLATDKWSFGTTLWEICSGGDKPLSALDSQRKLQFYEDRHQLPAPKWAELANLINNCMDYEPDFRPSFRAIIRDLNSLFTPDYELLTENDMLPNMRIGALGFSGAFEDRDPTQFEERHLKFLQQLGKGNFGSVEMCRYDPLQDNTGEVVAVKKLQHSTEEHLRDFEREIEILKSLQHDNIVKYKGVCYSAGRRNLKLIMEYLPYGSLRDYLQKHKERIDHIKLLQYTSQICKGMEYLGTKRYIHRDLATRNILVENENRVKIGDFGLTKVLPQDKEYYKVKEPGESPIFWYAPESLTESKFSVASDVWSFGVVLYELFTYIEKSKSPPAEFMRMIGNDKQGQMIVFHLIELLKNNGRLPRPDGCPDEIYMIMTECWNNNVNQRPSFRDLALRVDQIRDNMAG
# Sequence of EPHB1 (P54762 whole entry, looked up): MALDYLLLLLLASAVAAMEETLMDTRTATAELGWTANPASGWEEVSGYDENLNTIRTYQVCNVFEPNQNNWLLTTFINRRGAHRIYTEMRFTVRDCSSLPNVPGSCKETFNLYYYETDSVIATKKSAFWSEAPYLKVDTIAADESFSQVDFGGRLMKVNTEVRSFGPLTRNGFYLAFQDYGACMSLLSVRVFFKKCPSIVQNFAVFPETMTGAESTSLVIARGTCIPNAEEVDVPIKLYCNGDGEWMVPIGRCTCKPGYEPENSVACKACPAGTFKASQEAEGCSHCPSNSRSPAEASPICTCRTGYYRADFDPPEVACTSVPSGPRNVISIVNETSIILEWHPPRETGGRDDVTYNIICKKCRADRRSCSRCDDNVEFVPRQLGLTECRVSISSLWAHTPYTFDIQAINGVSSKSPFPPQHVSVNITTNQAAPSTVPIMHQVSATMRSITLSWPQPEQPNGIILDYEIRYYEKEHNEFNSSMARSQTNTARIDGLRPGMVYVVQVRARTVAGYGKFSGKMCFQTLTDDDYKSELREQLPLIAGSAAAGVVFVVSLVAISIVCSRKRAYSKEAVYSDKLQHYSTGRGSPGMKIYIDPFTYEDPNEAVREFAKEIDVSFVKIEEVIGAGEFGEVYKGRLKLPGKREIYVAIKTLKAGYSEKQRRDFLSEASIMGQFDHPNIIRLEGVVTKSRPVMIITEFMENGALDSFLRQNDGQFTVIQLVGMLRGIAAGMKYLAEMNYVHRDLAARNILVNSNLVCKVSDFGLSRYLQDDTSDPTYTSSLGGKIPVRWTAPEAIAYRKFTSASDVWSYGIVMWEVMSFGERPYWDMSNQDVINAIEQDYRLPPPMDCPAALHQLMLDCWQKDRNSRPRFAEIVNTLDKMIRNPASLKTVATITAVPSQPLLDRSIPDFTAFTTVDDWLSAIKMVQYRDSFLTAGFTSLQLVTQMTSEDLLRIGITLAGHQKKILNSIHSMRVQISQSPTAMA
# Sequence of FGFR1 (P11362 whole entry, looked up): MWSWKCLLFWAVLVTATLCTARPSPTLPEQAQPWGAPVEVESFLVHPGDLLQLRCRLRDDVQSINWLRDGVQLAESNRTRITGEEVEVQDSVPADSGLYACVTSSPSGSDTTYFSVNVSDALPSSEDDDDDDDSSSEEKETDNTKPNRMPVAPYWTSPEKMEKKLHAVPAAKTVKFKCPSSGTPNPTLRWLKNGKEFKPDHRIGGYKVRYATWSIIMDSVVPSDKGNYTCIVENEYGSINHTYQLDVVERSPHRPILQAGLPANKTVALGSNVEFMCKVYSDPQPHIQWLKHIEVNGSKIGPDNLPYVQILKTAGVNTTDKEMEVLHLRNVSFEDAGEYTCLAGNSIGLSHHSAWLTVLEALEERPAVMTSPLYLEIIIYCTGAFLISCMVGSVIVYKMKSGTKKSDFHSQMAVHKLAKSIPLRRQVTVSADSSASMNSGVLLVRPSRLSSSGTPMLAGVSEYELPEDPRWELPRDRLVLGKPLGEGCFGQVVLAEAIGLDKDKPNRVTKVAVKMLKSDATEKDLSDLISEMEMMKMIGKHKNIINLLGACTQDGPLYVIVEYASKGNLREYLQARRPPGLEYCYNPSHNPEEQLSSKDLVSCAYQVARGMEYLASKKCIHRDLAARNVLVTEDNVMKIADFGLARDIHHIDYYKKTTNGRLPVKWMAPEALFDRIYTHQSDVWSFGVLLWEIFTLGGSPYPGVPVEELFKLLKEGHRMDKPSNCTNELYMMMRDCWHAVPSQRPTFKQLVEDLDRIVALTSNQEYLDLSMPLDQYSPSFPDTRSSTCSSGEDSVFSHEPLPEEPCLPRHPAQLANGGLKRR
SH2 binding enrichment (Grb2 SH2),SH2 binding enrichment (SHP2-C SH2),SH2 binding enrichment (c-Src SH2),Sequence,phosphorylation enrichment (AncSZ),phosphorylation enrichment (EPHB1),phosphorylation enrichment (EPHB2),phosphorylation enrichment (FGFR1),phosphorylation enrichment (FGFR3),phosphorylation enrichment (Fer (mouse)),phosphorylation enrichment (Fes),phosphorylation enrichment (Fyn),phosphorylation enrichment (Hck),phosphorylation enrichment (Jak2),phosphorylation enrichment (MERTK),phosphorylation enrichment (c-Abl (mouse)),phosphorylation enrichment (c-Src)
0.75,0.659,0.502,LNCIFYKDQTG [RS1_Y166_W163C_YF],1.56,1.1,1.34,0.563,1.06,1.44,2.08,0.552,0.774,2.06,0.798,1.24,1.31
0.659,0.414,1.61,LNEAVYTKMMT [G6PD_Y401_P396L],1.9,1.76,1.8,1.38,1.29,16.1,2.05,5.35,6.11,1.15,3.19,0.881,5.76
1.11,0.955,0.608,LNFNEYFRDLN [HPRT1_Y198_D194N_YF],1.78,1.23,1.01,1.18,0.803,1.03,2.1,0.866,0.99,2.25,0.972,2.15,1.15
0.873,0.452,0.71,LNLKDYNLVGG [GNAQ_Y356_E355D],0.582,0.491,0.428,0.523,0.565,0.464,0.665,0.481,0.538,0.508,0.412,0.465,0.482
0.642,0.891,0.42,LNPLIYTLKNA [OR4C46_Y285],0.602,0.762,0.603,0.73,0.886,0.545,1.08,2.17,2.31,0.343,0.463,0.474,3.03
0.925,0.615,0.841,LRGEDCGFSVD [PRKCI_Y430_Y430C],1.94,2.18,1.14,0.847,1.41,0.886,2.77,0.631,0.987,2.49,1.25,1.97,1.48
0.983,0.871,0.494,LRLFSYSTTIR [CYP7B1_Y365_S363F],0.815,0.654,0.45,0.357,0.773,0.457,1.09,0.421,0.57,1,0.35,0.663,0.358
0.595,0.391,0.359,LRRFIYRPPDQ [OTOF_Y1231_R1236Q],0.675,0.409,0.606,0.443,0.397,0.445,0.606,0.479,0.493,0.502,0.516,0.333,0.318
0.973,0.756,0.48,LRTAVHHEILI [CREBBP_Y1450_Y1450H],1.09,1.02,0.487,0.963,0.812,0.675,1.39,0.508,0.643,1.32,0.535,1.94,0.701
1.25,1.03,5.31,LSIDRYHAIVY [NPSR1_Y147],0.83,0.438,0.594,3.36,1.87,0.544,1.15,0.546,0.533,1.65,0.7,0.982,0.89
0.798,0.691,0.519,LSSVSYVGCSL [ADGRD1_Y571_I569V],1.2,0.633,1.06,0.949,1.04,0.98,1.46,1.16,1.01,1.23,1.05,1.35,1.12
1.14,0.639,0.494,LTEEKYELKEG [TREM1_Y29],2.36,0.977,0.875,0.711,0.979,0.593,1.41,0.698,0.782,1.65,0.705,0.785,0.52
0.817,0.883,1.88,LTEHGYSFTTT [ACTB_Y198_R196H],2.11,0.862,0.533,0.961,1.09,0.815,1.79,0.968,0.342,1.61,0.938,1.58,1.09
0.945,4.37,5.24,LTERSYSFVTT [ACTA1_Y200_G199S],0.951,0.543,0.984,0.973,0.718,2.92,1.24,0.622,1.04,1.03,2.56,0.889,0.856
